Experimental data published in the DeepSol protein solubility set.

Experiment: soluble on expression in E. coli; label from the status in PepcDB or PDB records

Sequence | soluble on expression in E. coli
MFQIGEHNMILIYKLTLTKLTEDELKKDFATIPSWATHLDLSNNRLGETSNEELIRVFAKIPGWISHIKLRFNNLGQKNGKDLAKAFAKIPISVTTLDLGSNQLGKKSGEELANAFAGIPTSVTRLILSQNELYKRTGGELATAFAKIPSSVTHLVLVNNGLGEKNGKELATAFANIPSSVTTLDLALNDLSKIKSTELAVIFTKIPTSVTQLDLSHNNLNKKSGKNLAKIFANIPTSVTNLNLSCNELGKKSGKGLAAAFAKIPTSVTDLNIEDNDLDNRTGKELAMAFAHIPAFVNTLRLGDNNLGNKSGEELAEIFAKIPLSVTSLDLRYNELGKRNGKELAIAFAKIPSSVTNLNLKFNHLGKITGEELAMAFANIPTNVDSLVLANNELGAKSGEELAKIFSKIPASITSLNMGNDWFAVIEKLSQQKMVLSTITHVVIDYSSAQEHSAKLKLLATVFPNLNKVTFMDIHGNNALAGQNPIEEAKWLKLCGIKNSVPSLLSQALFFVAKNKEHRSIQDYPSLLPKELTDSISSLLKC | not soluble
MNELTKQMQQIMHPRAVLVAYECETTGYSTPRSYLELRPVNEKGRMGAGIPVTYEFMNSLVESYTESMSGIPHGRIPGNMLLCDSRKGRERYIWYNPPQKRKMYFQDGLHITDGTFNVPGVIYVVERECMDIHAFKGAIPEERTELYLAPFFNVAGANVCLGSSSPKKPQDMDFLEFQEYWEKRFWMSEFSHLGGNRNPTRSNLVSVTEHARNNPFDYSELQQSGKKLKDILA | not soluble
GPGSMPSAPTSVTAVVQLPPLIDCHVHFREPGLEHKADIASESTAAYYGGITVACDMPNTSPPTQSVAALADKVARAKATAHAHCQLFFFFGATAEAHLQELEELWTNPAHAELKTHCCGLKLYLDNSTGNMKSSLSVVEKSFEMCGRLQIVLVAHCEQSEINDAAAAQHPYDGPASHSLRRPADSEAASVQSAIALARQCRTPLHLAHVSTAQSLDLIREARAADPTLQLTCEVTPHHLFLTTSDYSCCGARVKVNPPVRPPQHHEALWAGLLDGTVDCVGTDHAPHTIAEKDHCDAAAQPPSGMPAIEVVVPLLLTVVAGQWPHPTAAKPSALAAAEHQGRTLTLDDVVRVLHTNPNRIFNLRQPDAPHRSFDLACEWTVRGEELHSKCQWTPYEGWRLRGRVLANE | soluble
ADPVMLEVFNNLFMSIAEQMGYRLQNTAYSVNIKERLDFSCAIFDAAGNLIANAPHMPVHLGSMGESIKTVMRANASRMRPGDAYVVNDPYHGGTHLPDVTVITPVFDRAGRDILFFVGSRGHHADIGGTTPGSMPPDSRTVEDEGVLFTNFQLVGNGEFRDREAREILASGRWPARNPDQNIADLHAQIAANEKGVQELLRMCDHFGLDVVRAYMGHVQDNAEEAVRRVISVLKDGRYTYRLDNGAVIEVAVRVDRQARSAVVDFTGTSGQLENNFNAPGAIAVAAVLYVFRTLVDDEIPLNAGCLKPLEIIIPEGSMLRPNPPASVVAGNVETSMCIVNALYGALGVLAASQGTMNNFTFGNARYQYYETISGGTGAGPLRIDAAGPADAGFAGTSVVQAHMTNSRLTDPEVLELRFPVRLESYEIRHGSGGAGRYRGGDGGVRRVRFLEPMTAAILSNNRRHVPFGLAGGGAGAMGRNYVERADGRVEPLGPQDSAELAAGDVFVVETPGGGDYGPA | not soluble
MMKVYRLYLRDEYLEMVKSGKKRIEVRVAYPQLKGMKRGDKIIFNDEVPAEVIEVKHYETFRQVLREEPIDKIFPDEPSFERALRRFHNLYPKWKENRYGVIAIKFKLLGRERK | soluble
MAHHHHHHVDDDDKMAGDSAAYQRTSLYGDDVVIVAAHRTPLCKSKRGNFKDTYPDDLLAPVLRALIEKTNLNPSEVGDIVVGTVLAPGSQRASECRMAAFYAGFPETVAVRTVNRQCSSGLQAVADVAAAIKAGFYDIGIGAGLESMTTNPMAWEGSVNPAVKKFAQAQNCLLPMGVTSENVAQRFGVSRQEQDQAAVDSHRKAAAATAAGKFKDEIIPVKTKLVDPKTGDEKPITVSVDDGIRPTTTLASLGKLKPVFKKDGTTTAGNSSQVSDGAGAVLLMKRSVAMQKGLPVLGVFRTFAAVGVDPAIMGIGPAVAIPAAVKAAGLELDDIDLFEINEAFASQFVYCRNKLGLDPEKINVNGGAMAIGHPLGATGARCVATLLHEMKRRGKDCRFGVVSMCIGTGMGAAAVFERGDGVDELRNARKVEAQGLLSKDAR | soluble
MGSDKIHHHHHHMNARKGGVDRSRAEAGMADTLFFFHNPKAGGTSVEDALRSLFPDERCCPRIENDATEHAQRAGRYAGFRGYDFYAGHYGFDIYQAVGSGMAAATNFRWPIDRIVSVYRYFHHIVELSDSQVRDPRFRAVRLAKTLCMDDFVTCDDPAVQLHTHDHHFRQLTGSGWSMANEQDLSAAIRLINQMVWFYVCEHPHESLAWAEEAFCRALPEIPRLNITRPDSASETGLSARACRQLILQNERDIVLYQYALERLIAQVTHEPSRLVA | not soluble
MTTRRLALFDLDHTLLPLDSDYQWADFLARTGRAGDPAEARRRNDDLMERYNRGELTAEQAAEFMLGLLAAHSPVELAAWHEEFMRDVIRPSLTVQAVDVVRGHLAAGDLCALVTATNSFVTAPIARAFGVQHLIATDPEYRDGRYTGRIEGTPSFREGKVVRVNQWLAGMGLALGDFAESYFYSDSVNDVPLLEAVTRPIAANPSPGLREIAQARGWQVIDLFDHLEDAKS | soluble
SLKEVLDEKFPSNNKLEVGLGRDISGDPITVPLNEMPHLLVAGSTGSGKSVCINGIITSILLNAKPHEVKLMLIDPKMVELNVYNGIPHLLIPVVTNPHKAAQALEKIVAEMERRYDLFQHSSTRNIKGYNELIRKQNQELDEKQPELPYIVVIVDELADLMMVAGKEVENAIQRITQMARAAGIHLIVATQRPSV | not soluble
MAGPSDRTFSDQTEEIMQATYRALREHGYADLTIQRIADEYGKSTAAVHYYYDTKDDLLAAFLDYLLERFVDSIHDVETTDPEARLNLLLDELLVKPQENPDLSVALLEMRSQAPYKEAFSDRFRQNDEYVRYMLKAVINHGIDEGVFTDVDAEHVTRSLLTIIDGARTRAVMLDDTEELETARQTASEYADAMLQ | soluble
NSGQSGAESDIRRKSEEIAAHSNEPSAEKPKEEKKWYDRIGIRGYTQFRYSSTVSGDKDAVSYWPDKSVGEDGSFLIRRARLVIFGDINDHLSLYIQPDFASTPSGSSTGHFAQLRDAYADIHFDKNKEFRVRVGQSKIPYSFENLQSSQNRLALDRNDAMNSCCRDERDIGAFFYWAPTHIRDRFKEVMAKNLKGSGDYGMFAFGIYNGQGANRLEGNNGVHMVTRFTYPHQFSNGQILEAGIQALRGRFVPSTGPAGGFTPVMDAPEKGFKDERVGVHAVLYPQPFGLQAEWNWGRGPQLNDGQTMLTESSLNGGYVLATYKIDGLRWGTLFPFVKWQHFKGGQKFERNAPRNHVNDLEFGLEWQVMKEIELTAVYHMMNRTNVASAPYERYKADVLRFQLQWNY | not soluble
MSDSSSSDGEDNQKFLGNRKKNLTKKKVVTEEIEKDDEEDVKEKSFAELGVSQPLCDACQRLGWMKPSKIQQAALPHALQGKDVIGLAETGSGKTGAFAIPVLQSLLDHPQAFFCLVLTPTRELAFQIGQQFEALGSGIGLIAAVIVGGVDMAAQAMALARRPHIIVATPGRLVDHLENTKGFNLKALKFLIMDEADRILNMDFEVELDKILKVIPRERRTYLFSATMTKKVSKLERASLRDPARVSVSSRYKTVDNLKQHYIFVPNKYKETYLVYLLNEHAGNSAIVFCATCATTMQIAVMLRQLGMQAVPLHGQMSQEKRLGSLNKFKSKAREILVCTDVAARGLDIPHVDMVINYDMPSQSKDYVHRVGRTARAGRSGIAITVVTQYDVEAYQKIEANLGKKLDEYKCVENEVMVLVERTQEATENARIEMKEMDEKKKSGKKRRQNDDFGDTEESGGRFKMGIKSMGGRGGSGGGRGGKKKKMSK | soluble
NGESYNFALNSGYTKLSDNAEVKIAVDKIADLVSNMTVHLMENTEKGDIRIRDELSRKIDINPYSLMTRKTWIYNIVSNLLLYGDGNAIVLPEIKNGLISELKPLDPSLVDFDVRDDSYKIHYKNKTYNPDEVVHFAINPDSEYPFIGTGYRVALKSLVDNLNQATATKKAFMSSKFMPNLIVKVDANAAELSSEKGKNKIEDMYLQRTEEGKPWIIPADLIEIEQVKPLSLNDIAINEAVNIDKKTVAGLLGVPAFFVGVGEFDKNEFNNFINTRIMSIAMIISQTLTRDLLISPTRFFKLNPRSLYSYDITELVAAGGQMVDRIAMDRNELRDWIG | not soluble
MSLGKHVTIGFAGPQADHGWLNAINDNAKSRAKKYGDVTLEITEGSNDTAAQIGQIETLINKKVDVLVVLPADGKALTQVGLKAMRAGIPVVNLDRIFNSPQAYRCWIGGDNYGMGLSAGRYIGEKLKDKPNARVVELAGLDNLELTKQRTQGFDAALKNYPNIRKVARQAAEFTVESGQSKMAQLLQAQSRFDALWNHDDDQGVGALRAIKQAGRDDFLMVGGAGALSAFQAIKADDGVLKATVLYPPTMAASAIDLARALGQGKGVGGLAEFEIPASLTLYSAVVDKDNVGQYMSTGFREGHHHHHH | soluble
SSAEAGGGIRKRHRTKFTAEQKERMLALAERIGWRIQRQDDEVIQRFCQETGVPRQVLKVWLHNNKH | soluble
MTNAKPENALAAIGIARKELDADRYILISSDLVYTPSNDPKAEDSRTEPITDEGRIFLTAESLMNQERDAIFRTGFIIGLCSVNLYTNVLNMVRSGMRLSLSKSTIRNFIRNADLSSFIMRSIERNISGVYNVASDASTAYDFAKRLCDMAGLKCTLEDSGEDLGNYTMDTSRSLKTFGMRPMSVFEGYTISGSFDLR | not soluble
MVVSIIPQFPDIKVSLALFEQVKNAKEIRSKMSELSTSFAFIDPRLVCSGEQMYSAIYKTLIEVKYNKMRTRNLNSECVLCLSPTSNISDAFLKFGIKDDSSQLICLKFHTNTDDVDKEQLRTIMTSIVKGQEIEFNDDNLSRFYDEALIRKVCFNNKFEVKTSTASPETHCTNFTFVFLLFCFYLLDL | not soluble
MSLSSDMEGGMITMKANDTTKYLIHAEIEAEGVVERPDVVGAIFGQTEGLLGGDLDLRELQKTGRIGRIEVKIESKGGRSFGEIKVPSSLDKVETAILAAALETIERVGPCSAKIKVLKIEDVRASKRKRIVERAMNILREHFEEPEIESERIVEIVRQAIRADEIVEYGEEKLPAGPAIDESDAIIVVEGRADVLNLLKHGIKNVIAVEGTNIPKTIVELSKKKTVTAFLDGDRGGDLILKELLQVAEVDYVARAPEGKEVEDLTQKEILKSLRNKVPVEQLHVLKKEAKEGREREKLAEMPKDSISDVLRKHTESVKGRLTARVLDRNLNVIKEVPVRDLVKILKTNNMKGSAIVFDGIITQRLIDLAAKKEFDYIVGVRLGSVVKVPTSLRVITFDQLEGHHHHHH | not soluble
GMSRTLVLFDIDGTLLKVESMNRRVLADALIEVYGTEGSTGSHDFSGKMDGAIIYEVLSNVGLERAEIADKFDKAKETYIALFRERARREDITLLEGVRELLDALSSRSDVLLGLLTGNFEASGRHKLKLPGIDHYFPFGAFADDALDRNELPHIALERARRMTGANYSPSQIVIIGDTEHDIRCARELDARSIAVATGNFTMEELARHKPGTLFKNFAETDEVLASILTPKHS | soluble
MGSDKIHHHHHHMDLTTAQVSRLISELETRLGTKLIQRSTRQQALTDIGATYAERCRQVISMVDEAEAEVTGTASKPKGRLRVLSMGSFGHHYVFPVMAEFCKHYPELTVEYTTSQYVPDLLAKGVDVSLYLTESLTDSRFVARRIGTIFSVLCASPAYLEKHGVPKSPEDLKNHACLRLVNPSITPDWHLLNANGESYQIDIGGQLIADNPELLLDVVQQDMGVALLPMFSALDAVQNGRLCHILPEWRSPDIGVYTLLPSRHFIDAKTRAWLDWVEEYISPKIEMDASYFYK | not soluble
